This test has as its target SARS-CoV-2 prefusion-stabilized trimeric spike ectodomain (S2Pecto) (SARS-CoV-2) (UniProt P0DTC2). Description: ELISA on coated antigen. A general note: ELISA stands for enzyme-linked immunosorbent assay.

Take “rCR3022 (recombinant form of the cross-reactive SARS-CoV SRBD mAb CR3022) (antibody)”: the EC50 (as a rule, the concentration that produces a half-maximal response) came to 0.0102 mg/L.
